Results: article PMC3897428 (PLoS ONE, 2014)
Blank lines part the entries; values can stand above or below the binder they belong to.

Tests used:
Details in all cases: one partner purified
[1] = target: T1, chimpanzee uPAR in tissues (chimpanzee (endogenous in tissues), UniProt Q9GK80); experiment: immunostaining of cells or tissue; immunohistochemistry of chimpanzee tissues with ATN-658; no figure or methods given
T1 construct: source: endogenous, chimpanzee tissues

[2] = target: T2, African green monkey uPAR on COS-1 cells (Chlorocebus aethiops (COS-1 cells), UniProt Q9GK79); experiment: flow cytometry on cells; cells incubated with ATN-658 (10 µg/mL) 1 h at 4°C in FACS buffer, Alexa Fluor 488 secondary antibody
T2 construct: also called AGM uPAR; source: endogenous, on COS-1 cells

[3] = target: T3, human uPAR on the surface of cells (PC-3, HeLa) (Homo sapiens, UniProt Q03405); experiment: radioligand binding; iodinated ATN-658 on the surface of HeLa cells
T3 construct: source: endogenous, on PC-3 and HeLa cells

[4] = target: T4, African green monkey (AGM) suPAR (Chlorocebus aethiops (COS-1 cells), UniProt Q9GK79); experiment: ELISA; capture ELISA: suPAR clones from culture supernatant captured by anti-V5 antibody on the plate, biotin-ATN-658, streptavidin-HRP, OPD; saturation binding
T4 construct: soluble uPAR (suPAR) of African green monkey (Cercopithecus aethiops), cloned from COS-1 cells by PCR; numbers count on: the mature protein; Parent of the nine point mutants; also called monkey suPAR; source: Drosophila S2 cells, expressed as described for human suPAR

[5] = target: T5, mouse uPAR on B16 melanoma cells (Mus musculus (B16 melanoma), UniProt P35456); experiment: whole cell saturation binding assay; adherent cells on gelatin coated 12-well plates, varying concentrations of biotin-labeled ATN-658 in HBSS/0.1% BSA, 1 h at room temperature, HRP-streptavidin and OPD
T5 construct: source: endogenous, on B16 cells

[6] = target: T2, African green monkey uPAR on COS-1 cells; experiment: as above

T2 sequence (Q9GK79 whole entry, looked up): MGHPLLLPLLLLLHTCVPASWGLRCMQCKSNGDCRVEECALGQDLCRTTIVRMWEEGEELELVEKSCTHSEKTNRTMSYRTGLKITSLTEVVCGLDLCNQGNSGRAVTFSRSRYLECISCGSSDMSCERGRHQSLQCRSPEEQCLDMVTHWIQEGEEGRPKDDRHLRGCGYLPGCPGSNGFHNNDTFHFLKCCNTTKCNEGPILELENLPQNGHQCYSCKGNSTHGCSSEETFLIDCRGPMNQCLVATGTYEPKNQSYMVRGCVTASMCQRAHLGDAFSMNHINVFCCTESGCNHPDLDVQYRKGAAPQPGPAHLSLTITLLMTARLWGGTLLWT
T1 sequence (Q9GK80 23-305): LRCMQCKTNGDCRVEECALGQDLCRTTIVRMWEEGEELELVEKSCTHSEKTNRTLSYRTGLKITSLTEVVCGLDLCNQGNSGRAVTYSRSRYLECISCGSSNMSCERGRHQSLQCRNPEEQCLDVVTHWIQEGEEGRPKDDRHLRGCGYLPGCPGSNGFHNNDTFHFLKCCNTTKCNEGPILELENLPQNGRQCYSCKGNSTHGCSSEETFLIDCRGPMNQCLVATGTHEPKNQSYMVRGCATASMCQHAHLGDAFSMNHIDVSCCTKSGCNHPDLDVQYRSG
T5 sequence (P35456 24-298): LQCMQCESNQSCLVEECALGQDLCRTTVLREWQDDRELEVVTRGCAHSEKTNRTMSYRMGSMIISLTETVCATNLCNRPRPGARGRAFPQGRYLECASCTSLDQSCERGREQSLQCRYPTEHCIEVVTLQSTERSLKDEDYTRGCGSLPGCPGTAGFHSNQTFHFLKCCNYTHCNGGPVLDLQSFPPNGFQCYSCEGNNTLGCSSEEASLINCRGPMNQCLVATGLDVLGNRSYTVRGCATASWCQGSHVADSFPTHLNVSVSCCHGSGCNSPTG
T4 sequence (Q9GK79 whole entry, looked up): as the sequence (Q9GK79 whole entry, looked up) above
T3 sequence (Q03405 23-305): as the sequence (Q9GK80 23-305) above, with M31L, N102D, N117S counted along it

binding result [1]: binds | binding result [2]: no binding (tested: 10 µg/mL)
B1: ATN-658 monoclonal antibody (antibody, V domains shown)
VH: EVQLQQSGPELVKTGASVKISCKASGYSFTSYYMHWVKQSHGKSLEWIGEINPYNGGASYNQKIKGRATFTVDTSSRTAYMQFNSLTSEDSAVYYCARSIYGHSVLDYWGQGTSVSVSS
VL: not shown
notes: Fab part as the heavy chain of m4, followed by the rest of a mouse IgG1 heavy chain; as the light chain of m4 (kappa); Mouse IgG1 kappa; source: mouse hybridoma tissue culture supernatant, purified (protein-A Sepharose)

Kd [3]: ~5 nM
B2: iodinated ATN-658 (antibody, V domains shown)
VH: EVQLQQSGPELVKTGASVKISCKASGYSFTSYYMHWVKQSHGKSLEWIGEINPYNGGASYNQKIKGRATFTVDTSSRTAYMQFNSLTSEDSAVYYCARSIYGHSVLDYWGQGTSVSVSS
VL: not shown
notes: as the heavy chain of m1; as the light chain of m1; Mouse IgG1 kappa; source: mouse hybridoma tissue culture supernatant, purified (protein-A Sepharose), iodinated

binding result [5]: no binding | binding result [6]: no binding
B3: Biotin-ATN-658 (antibody, V domains shown)
VH: EVQLQQSGPELVKTGASVKISCKASGYSFTSYYMHWVKQSHGKSLEWIGEINPYNGGASYNQKIKGRATFTVDTSSRTAYMQFNSLTSEDSAVYYCARSIYGHSVLDYWGQGTSVSVSS
VL: not shown
notes: as the heavy chain of m1; as the light chain of m1; Mouse IgG1 kappa
binding result [4]: no binding (tested: 1 µg/mL biotin-ATN-658 (methods))
